Reference: patent US20190004063A1

Experiments:
Test in all cases: flow cytometry on modified HEK293T cells without CD74
[1] = biological target: SLA-DQα1*0101 + DQβ1*0303 (pairing 7) on modified HEK293T cells without CD74 (pig)
[2] = biological target: SLA-DRα*w04 + DRβ1*0403 (pairing 3) on modified HEK293T cells without CD74 (pig)
[3] = biological target: SLA-DRα*020102 + DRβ1*1001 (pairing 2) on modified HEK293T cells without CD74 (pig)
[4] = biological target: SLA-DQα1*0101 + DQβ1*0601 (pairing 8) on modified HEK293T cells without CD74 (pig)
[5] = biological target: SLA-DRα*020102 + DRβ1*0403 (pairing 1) on modified HEK293T cells without CD74 (pig)
[6] = biological target: SLA-DRα*w04 + DRβ1*1001 (pairing 4) on modified HEK293T cells without CD74 (pig)
[7] = biological target: SLA-DQα1*0204 + DQβ1*0601 (pairing 6) on modified HEK293T cells without CD74 (pig)
[8] = biological target: SLA-DRα*020102 + DQβ1*0303 (pairing 9) on modified HEK293T cells without CD74 (pig)
[9] = biological target: SLA-DRα*w04 + DQβ1*0303 (pairing 10) on modified HEK293T cells without CD74 (pig)
[10] = biological target: SLA-DQα1*0204 + DQβ1*0303 (pairing 5) on modified HEK293T cells without CD74 (pig)

background MFI [1]: 1000 MFI
background MFI [2]: 1000 MFI
background MFI [3]: 1000 MFI
background MFI [4]: 1000 MFI
background MFI [5]: 1000 MFI
background MFI [6]: 1000 MFI
background MFI [7]: 1000 MFI
background MFI [8]: 1000 MFI
background MFI [9]: 1000 MFI
background MFI [10]: 1000 MFI
Substance: CerCLIP.1, a monoclonal antibody specific for invariant chain peptides associated with Class II SLA
